Legend:
[1] = molecular target: T1, His6-CaCrz1 (Candida albicans, UniProt Q5A4H5 1-731); experiment: EMSA; 1 ug protein; abolished by unlabelled Probe 1; EMSA with DIG-labelled probes and 1 ug His6-Crz1; buffer, salt, pH and temperature not given in the material; details: protein: recombinant, tags: N-terminal His6 (pET28a(+)), label: DIG
T1 sequence: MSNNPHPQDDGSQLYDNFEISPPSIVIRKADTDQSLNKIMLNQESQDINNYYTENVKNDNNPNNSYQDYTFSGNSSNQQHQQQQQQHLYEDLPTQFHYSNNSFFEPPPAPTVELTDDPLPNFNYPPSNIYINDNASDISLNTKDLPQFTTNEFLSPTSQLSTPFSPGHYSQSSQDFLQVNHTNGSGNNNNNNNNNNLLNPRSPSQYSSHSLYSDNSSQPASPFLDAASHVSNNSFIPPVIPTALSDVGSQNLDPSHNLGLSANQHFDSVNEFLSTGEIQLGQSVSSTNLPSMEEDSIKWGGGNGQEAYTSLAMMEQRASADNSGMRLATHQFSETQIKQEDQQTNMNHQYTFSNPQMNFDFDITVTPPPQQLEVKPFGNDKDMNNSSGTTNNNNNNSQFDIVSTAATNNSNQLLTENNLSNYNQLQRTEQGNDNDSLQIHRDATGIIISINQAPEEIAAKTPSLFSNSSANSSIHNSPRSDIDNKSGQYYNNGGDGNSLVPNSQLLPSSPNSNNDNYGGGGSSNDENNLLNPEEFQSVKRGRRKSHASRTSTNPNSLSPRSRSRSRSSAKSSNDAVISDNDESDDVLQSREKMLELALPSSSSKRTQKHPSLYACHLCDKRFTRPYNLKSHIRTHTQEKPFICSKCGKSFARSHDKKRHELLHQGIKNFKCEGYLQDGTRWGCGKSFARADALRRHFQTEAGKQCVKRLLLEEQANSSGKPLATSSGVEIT

[2] = molecular target: T1, His6-CaCrz1; experiment: EMSA; 1 ug protein; abolished by unlabelled Probe 2; EMSA with DIG-labelled probes and 1 ug His6-Crz1; buffer, salt, pH and temperature not given in the material; details: protein: recombinant; tags: N-terminal His6 (pET28a(+)); label: DIG
[3] = molecular target: T1, His6-CaCrz1; experiment: EMSA; 1 ug protein; EMSA with DIG-labelled probes and 1 ug His6-Crz1; buffer, salt, pH and temperature not given in the material; details: protein: recombinant; tags: N-terminal His6 (pET28a(+)); label: DIG; blunt

B1: UTR2 Probe 1 EMSA_UTR2_F/R(H) (dsDNA)
DNA 1: CTTTCATTTCATTTCTTTTCTCAACGCCTCAAAATTTGATTCTTAAAATT
DNA 2: AATTTTAAGAATCAAATTTTGAGGCGTTGAGAAAAGAAATGAAATGAAAG
Question: Does B1 bind [1]?
Answer: binds

B2: UTR2 Probe 2 EMSA_UTR2_F/R(M) (dsDNA)
DNA 1: GGCTTAAATTCTTGAGTTGTGGGCTTTGAATTTCTTTCATTTCAT
DNA 2: ATGAAATGAAAGAAATTCAAAGCCCACAACTCAAGAATTTAAGCC
Question: Does B2 bind [2]?
Answer: binds

B3: CRZ1 Probe 1 (dsDNA)
DNA 1: TGTGTGTGTGTGTGACAGTCCAGTCCCTCAACTAATTTAAAACAGTTTTT
DNA 2: AAAAACTGTTTTAAATTAGTTGAGGGACTGGACTGTCACACACACACACA
Question: Does B3 bind ([1]; blunt)?
Answer: binds

B4: CRZ1 Probe 2 (dsDNA)
DNA 1: ATTAGAATAGAATATTATCACAGACCCCCCCAATATCTATTTATCAACCT
DNA 2: AGGTTGATAAATAGATATTGGGGGGGTCTGTGATAATATTCTATTCTAAT
Question: Does B4 bind [3]?
Answer: no binding

B5: CRZ1 Probe 3 (dsDNA)
DNA 1: TTTCAACTTCCATCATATTTACCACAATTGGATTAACTTGGTTAT
DNA 2: ATAACCAAGTTAATCCAATTGTGGTAAATATGATGGAAGTTGAAA
Question: Does B5 bind [3]?
Answer: no binding

B6: CRZ1 Probe 4 (dsDNA)
DNA 1: AACAATTTAATCTGGTCATTTCATTTCCCCTAACAGCATCTTTCCAAGTT
DNA 2: AACTTGGAAAGATGCTGTTAGGGGAAATGAAATGACCAGATTAAATTGTT
Question: Does B6 bind [3]?
Answer: no binding
